Drawing on patent publication US10766960 (dated 2020), this text covers Kd for six molecules.

Residue numbers refer to the chain shown, from its start. Like-named read-outs stand apart in the source and are kept apart here.

Common to all, as to test: SPR
(In general: In SPR one partner is held on a chip, and binding of the other changes the refractive index at the surface.)

Assay [1] addresses T1, FcgRIIIa F (human, UniProt P08637).
Assay [2] addresses T1, FcgRIIIa F. The source holds these as a separate data set.
Assay [3] concerns the target T1, FcgRIIIa F. The source holds these as a separate data set.
The target in a further assay is T2, FcgRIIa R (human, UniProt P12318).
T2 chain: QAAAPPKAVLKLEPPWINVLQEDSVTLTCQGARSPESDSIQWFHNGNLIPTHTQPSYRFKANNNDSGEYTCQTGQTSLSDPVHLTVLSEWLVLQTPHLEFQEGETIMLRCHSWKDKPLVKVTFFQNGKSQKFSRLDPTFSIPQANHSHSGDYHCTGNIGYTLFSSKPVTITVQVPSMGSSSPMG

The target in a further assay is T3, FcgRIa (human, UniProt P12314).
T3 chain: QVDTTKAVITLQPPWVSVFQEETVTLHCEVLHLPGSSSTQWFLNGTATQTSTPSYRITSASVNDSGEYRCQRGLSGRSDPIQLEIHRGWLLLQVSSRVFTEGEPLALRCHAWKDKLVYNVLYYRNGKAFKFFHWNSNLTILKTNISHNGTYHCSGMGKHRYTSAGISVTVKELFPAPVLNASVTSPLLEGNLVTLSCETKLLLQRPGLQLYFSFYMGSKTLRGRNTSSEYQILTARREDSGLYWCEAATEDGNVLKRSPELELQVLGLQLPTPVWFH

For the next assay, the target named is T4, FcgRIIa H (human, UniProt P12318).
T4 chain: T2 chain with R134H

In the next assay the target is T5, FcgRIIb (human, UniProt P31994).
T5 chain: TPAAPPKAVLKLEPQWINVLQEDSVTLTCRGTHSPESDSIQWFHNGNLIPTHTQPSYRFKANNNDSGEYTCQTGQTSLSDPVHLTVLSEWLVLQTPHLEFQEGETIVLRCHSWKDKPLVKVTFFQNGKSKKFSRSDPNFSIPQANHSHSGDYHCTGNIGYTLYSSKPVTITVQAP

Assay [4] concerns the target T6, FcgRIIIa V (human, UniProt P08637).
Assay [5] has as its target T1, FcgRIIIa F. The source holds these as a separate data set.
The target of assay [6] is T6, FcgRIIIa V. The source holds these as a separate data set.

T6 sequence (P08637 17-208 F176V): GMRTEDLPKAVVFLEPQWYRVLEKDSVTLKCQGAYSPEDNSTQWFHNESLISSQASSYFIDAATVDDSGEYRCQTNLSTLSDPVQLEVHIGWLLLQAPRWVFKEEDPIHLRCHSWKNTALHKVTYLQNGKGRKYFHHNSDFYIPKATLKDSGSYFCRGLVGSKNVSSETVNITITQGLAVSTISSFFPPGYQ
T1 sequence (P08637 17-208): as the sequence (P08637 17-208 F176V) above, with V160F counted along it

B1: GpH7-A53/GpH7-B78/GpL16-k0 (antibody)
chain 1: QVQLVQSGAEVKKPGASVTVSCKASGYTFTDYEMHWIRQPPGEGLEWIGAIDPKTGDTAYSESFQDRVTLTADKSTSTAYMELSSLTSEDTAVYYCTRFYSYTYWGQGTLVTVSSASTKGPSVFPLAPSSKSTSGGTAALGCLVKDYFPEPVTVSWNSGALTSGVHTFPAVLQSSGLYSLSSVVTVPSSSLGTQTYICNVNHKPSNTKVDKKVEPKSCDKTHTCPPCPAPELLGGPDVFLFPPKPKDTLMISRTPEVTCVVVDVSHEDPEVKFNWYVDGVEVHNAKTKPREEQYNSTYRVVSVLTVLHQDWLNGKEYKCKVSNKALPAPIEKTISKAKGQPREPQVYTLPPSRKELTKNQVSLTCLVKGFYPSDIAVEWESNGQPENNYKTTPPVLDSDGSFFLYSKLTVDKSRWQQGNVFSCSVMHEALHNRYTQKSLSLSP
chain 2: B1 chain 1 with A328L, I330E, K354D, R433H, K437E
chain 3: DIVMTQSPLSLPVTPGEPASISCQASESLVHSNRNTYLHWYLQKPGQSPQLLIYKVSNRFSGVPDRFSGSGSGTDFTLKISRVEAEDVGVYYCSQNTHVPPTFGQGTKVEIERTVAAPSVFIFPPSDEQLKSGTASVVCLLNNFYPREAKVQWKVDNALQSGNSQESVTEQDSKDSTYSLSSTLTLSKADYEKHKVYACEVTHQGLSSPVTKSFNRGEC
B1 yielded a Kd with FcgRIIIa F [1] of 11 nM.

B2: GpH7-TA54/GpH7-B78/GpL16-k0 (antibody)
chain 1: B1 chain 1 with L232Y, G234W, Y294W, S296A
chain 2: B1 chain 1 with A328L, I330E, K354D, R433H, K437E
chain 3: B1 chain 3
In the assay with FcgRIIIa F [2], B2 returned a Kd of 1 nM.

B3: GpH7-TA22/GpH7-TA58/GpL16-k0 (antibody)
chain 1: B1 chain 1 with L232Y, G234W, S296A
chain 2: B1 chain 1 with Y294W, A328L, I330E, K354D, R433H, K437E
chain 3: B1 chain 3
For the molecule B3, the Kd with FcgRIIIa F [2] is 1.3 nM.

B4: H240-Kn072/H240-Hl076/L73-k0 (antibody)
chain 1: QDQLVQSGAEVKKPGASVKVSCKASGFNIKDTYIQWVRQAPGQGLEWMGRIDPLRKQTKYREKFEGRVTITADTSTNTAYMELSSLRSEDTAVYYCVRSGREFDYWGQGTLVTVSSASTKGPSVFPLAPSSKSTSGGTAALGCLVKDYFPEPVTVSWNSGALTSGVHTFPAVLQSSGLYSLSSVVTVPSSSLGTQTYICNVNHKPSNTKVDKKVEPKSCDKTHTCPPCPAPEYYWGPSVFLFPPKPKDTLMISRTPEVTCVVVDVSDEEPEVKFNWYVDGVEVHNAKTKPREEQYNATYRVVSVLTVLHQDWLNGKEYKCKVSNKALPAPIEKTISKAKGQPREPQVCTLPPSRDELTKNQVSLWCLVKGFYPSDIAVEWESNGQPENNYKTTPPVLDSDGSFFLYSKLTVDKSRWQQGNVFSCSVMHEALHNHYTQKSLSLSP
chain 2: QDQLVQSGAEVKKPGASVKVSCKASGFNIKDTYIQWVRQAPGQGLEWMGRIDPLRKQTKYREKFEGRVTITADTSTNTAYMELSSLRSEDTAVYYCVRSGREFDYWGQGTLVTVSSASTKGPSVFPLAPSSKSTSGGTAALGCLVKDYFPEPVTVSWNSGALTSGVHTFPAVLQSSGLYSLSSVVTVPSSSLGTQTYICNVNHKPSNTKVDKKVEPKSCDKTHTCPPCPAPELLGGPSVFLFPPKPKDTLMISRTPEVTCVVVDVSHEEPEVKFNWYVDGVEVHNAKTKPREEQYNSTYRVVSVLTVLHQDWLNGKEYKCKVSNDALPMPIEETISKAKGQPREPQVYTLPPSRCELTKNQVSLSCAVKGFYPSDIAVEWESNGQPENNYKTTPPVLDSDGSFFLVSKLTVDKSRWQQGNVFSCSVMHEALHNHYTQKSLSLSP
chain 3: DIQMTQSPSSLSASVGDRVTITCRASQDIHKYIAWYQQKPGQAPRLLIQYTSTLQPGVPSRFSGSGSGTDYTFTISSLQPEDIATYYCLQYEQLRTFGGGTKVEIKRTVAAPSVFIFPPSDEQLKSGTASVVCLLNNFYPREAKVQWKVDNALQSGNSQESVTEQDSKDSTYSLSSTLTLSKADYEKHKVYACEVTHQGLSSPVTKSFNRGEC
Take B4: the Kd with FcgRIIIa F [3] turned out to be 2.6 nM; with FcgRIIa R it was 710 nM; with FcgRIa, 0.1 nM; with FcgRIIa H, 130 nM; with FcgRIIb, 5700 nM; with FcgRIIIa V [4], 1 nM.

B5: H240-AK072/L73-k0 (antibody)
chain 1: B4 chain 1 with C348Y, D355K, L357M, W365T, H434R
chain 2: B4 chain 3
As to B5, the Kd with FcgRIIIa F [5] is 300 nM; with FcgRIIIa V [6] it was 29 nM.

B6: H240-BH076/L73-k0 (antibody)
chain 1: B4 chain 2 with C355E, L357M, S365T, A367L, V406Y, K438E
chain 2: B4 chain 3
Regarding B6, the Kd with FcgRIIIa F [5] is 26 nM; in the assay with FcgRIIIa V [6], 5.3 nM.

What is called Kd is the equilibrium constant for the complex coming apart. A lower Kd goes with tighter binding.
